According to the supplement of paper PMC9170038:

System: MS2 coat protein
Test: apparent KD of MS2 coat protein; higher = weaker reporter binding
Conditions: Eterna round: R107
Method: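 RNA-MaP round R107: designed RNA switches with theophylline, tryptophan, arginine or FMN aptamers are transcribed on-chip within common flanks. They are titrated with SNAP-549-labelled MS2 coat protein in RNA-MaP buffer (100 mM Tris pH 7.5, 80 mM KCl, 4 mM MgCl2), without ligand or with the indicated ligand. Median apparent KD per design.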

[1] = input ligand: theophylline 20 uM
[2] = input ligand: tryptophan 2.4 mM
[3] = input ligand: theophylline 2 mM

Sequence	apparent KD of MS2 coat protein (input ligand: arginine 13.2 mM)	apparent KD of MS2 coat protein [1]	apparent KD of MS2 coat protein [2]	apparent KD of MS2 coat protein [3]	apparent KD of MS2 coat protein (input ligand: none)
AAGCUGGGUGUAAAAUAAAUAAUCACUGAUACCAGACUAUGAGAUGUCCCUUGGCAGCAGAAACAUGAGGAUCACCCAUGUAAUA [JR_Nu_ExcTheophyA_Sub027]	0.0214 µM	0.0255 µM	0.0271 µM	–	–
GUCCUAGCGAUCGCUCGCUAGGACGCGGAUACCAGCGAGGUCCAUCGCCCUUGGCAGCCGAACAUGAGGAUCACCCAUGUCGGUA [#1 Same State - Theophylline A Attempt #18 (HarryS)]	0.0084 µM	0.0142 µM	0.0102 µM	–	–
GAGCUGAUGUAGAGAUUAUAUAAAAGAGAUACCAGUACAGAAAUGUACCCUUGGCAGCUCAACUUUACAUGAGGAUCACCCAUGU [Ex Theophylline A 19]	0.0154 µM	0.0158 µM	0.0139 µM	–	–
CUACAUGGGCUCGAUACCAGUCAGCUCUCGCGUCUCUCAGACAUGAGGAUCACCCAUGUUGACCCUUGGCAGCGACGAUGUAGGC [theeternabot_exclusion_MS2_Theo_B_46]	0.0511 µM	0.123 µM	0.0839 µM	–	–
AAGUCAGGAGGCGAUACCAGUUACGACAUGGCCAGUUACAUGAGGAUCACCCAUGUGCGGAACCCUUGGCAGCGCUUACAUCGCU [theeternabot_exclusion_MS2_Theo_B_1]	0.0225 µM	0.047 µM	0.0244 µM	–	–
AAUAAUAAGAAUAACGUACCAGGUGAUCAACGAGGACCGGUACGGCCGCCACUCGAAACAUGAGGAUCACCCAUGUAAUAACAAU [|T'-M'-Trp-Ms2|_Design 2_OL]	0.0397 µM	0.107 µM	–	0.124 µM	–
CCUCAAUCGUCGGCCGCCACUGAAUCAUGCGGAUACAUGAGGAUCACCCAUGUGGGUGUGGUACGCAGGACCGGGACAAGACCCG [#14 Same State - Tryptophan B]	0.154 µM	0.337 µM	0.152 µM	0.86 µM	0.203 µM
UUGACAUGAGGAUCACCCAUGUCAAAGGCACGAGGACCGGUACGGCCGCCACUCGUGGUCUAUGGCUGGUGGACUCGUGUCUCGG [Soisusdira]	0.0122 µM	0.016 µM	0.0108 µM	0.0168 µM	0.012 µM
AACAGUAUUAUAGAUACCAGCAGGUCAUAAGACAUGAGGAUCACCCAUGUGAAUGAGGUAUGCCCUUGGCAGCUAUGAGGUCCUC [theeternabot_sameState_MS2_Theo_B_18]	0.113 µM	0.185 µM	0.126 µM	–	–
UGAUUGAACGGAAGGAGCGUGAAGAGAGAGAAACAUGAGGAUCACCCAUGUAGAGAGAGAACACAGGUAGGUCGCCGAGAGAUUG [11.B]	0.0145 µM	0.0212 µM	0.0112 µM	0.0147 µM	0.0134 µM
UUUAAGAACCGAAGGAGCGCCAGAAAUAAGAACGCUACAUGAGGAUCACCCAUGUAAUAAGGGCAGGUAGGUCGCGGAAUUUAAA [last]	0.0179 µM	0.0334 µM	0.0214 µM	0.0247 µM	0.0212 µM
AGAAUAUAGUCGGCCGCCACUCUACAAACAUGAGGAUCACCCAUGUUCACAUAGUGGAAACACAUGAGGACCGGGACAUAGGCAU [#17 Same State - Tryptophan B]	0.014 µM	0.0214 µM	–	0.0183 µM	–
GGUACAUGAGGAUCACCCAUGUAUUGGUACCGAGGACCGGUACGGCCGCCACUCGCAUGACAUGAGGAUCACCCAUGUGAAACCU [SSTA DOUBLE!!! :-D #12]	0.0293 µM	0.0516 µM	–	0.0599 µM	–
ACAUGAGGAUCACCCAUGUCACGGCACGAUACCAGCUGAUCCGGUGGCCCUUGGCAGCGUGACGUUUGGUCCCGCGGAUCACACG [semullin]	0.04 µM	0.101 µM	0.0669 µM	–	–
CUACAUUUGUAGAAACCGGUCAACAUUAUUCGAGGACCGGUACGGCCGCCACUCGUAUCAUUUGAUACAUGAGGAUCACCCAUGU [Tryptophan A 8]	0.0211 µM	0.0261 µM	–	0.0266 µM	–
GGAUUCAACUCGGCCGCCACUGGUGAUCCUAAUGUACAUGAGGAUCACCCAUGUACAUGAGAAUAUAGGACCGGGAGAUAAGUUA [Tryptophan B V3 (+3U)]	0.0232 µM	0.0335 µM	–	0.0322 µM	–
UCGUUUUAGUCGGCCGCCACUGUAUGCAUGUUUAACAUGAGGAUCACCCAUGUCCCGUACUAUAACAGGACCGGGACGUAAUAGA [JR_SSTryptoB_Sub006]	0.112 µM	0.207 µM	–	0.936 µM	–
AAGGGAGAAUCAGAUACCAGAGUAAGAUGGCAUGAUAAUUACAUGAGGAUCACCCAUGUACUCCCUUGGCAGCUGACAAUAUAUU [Exclusion Theophylline B GF 18]	0.0125 µM	0.0132 µM	0.0103 µM	–	–
UCUUGAGUUUCGGAUACCAGUGAUGUCGAUACAUGAGGAUCACCCAUGUUAGAGGAUGUACACCCUUGGCAGCCGGGUGUGGCGG [wswmullin]	0.0251 µM	0.0421 µM	0.0449 µM	0.0275 µM	0.036 µM

Sequence	apparent KD of MS2 coat protein (input ligand: arginine 13.2 mM)	apparent KD of MS2 coat protein [1]	apparent KD of MS2 coat protein [2]	apparent KD of MS2 coat protein [3]	apparent KD of MS2 coat protein (input ligand: none)
GGCGCGGUGAUGGUAGCCGGACGCUAGGUACGAGGACCGGUACGGCCGCCACUCGGAGUCCUGGGACAUGAGGAUCACCCAUGUA [Same State Trp A GF18]	0.0789 µM	0.118 µM	0.0634 µM	0.209 µM	0.161 µM
AUACAUGAGGAUCACCCAUGUUACACUGAAGGAGCGACAUGUUUGUCAGGUAGGUCGCAGUGAAGUUUAAUAAUUCUUUGAUCUU [#06 Same State - Arginine A]	0.0224 µM	0.0364 µM	0.0237 µM	0.0265 µM	0.024 µM
ACAUGAGGAUCACCCAUGUUAAACACAGAAGGAGCGUGAAGGAACACAGGUAGGUCGCUGUACUUAUUGAGUAUUCACUCGAUAC [JR_Nu_SSArginiA_Sub028]	0.0149 µM	0.0165 µM	0.0133 µM	0.0128 µM	0.0125 µM
UACAUGAGGAUCACCCAUGUAUGAAUAGAUACCAGAUAAAAUAAGGUCCCUUGGCAGCUAGUGAAUAAAGGGUGGGUAAAAUAAU [Exclusion Theophyline A GF 1]	0.0113 µM	0.0123 µM	0.00924 µM	–	–
CAUUUUAGAAAACUAAAAUGAGUGGGUGAACGAGGACCGGUACGGCCGCCACUCGGACAUGAGGAUCACCCAUGUCCAUGUGAAA [AstrosExyTryA#22]	0.0228 µM	0.015 µM	0.0378 µM	0.0144 µM	0.0141 µM
AAGGUGAUCCGUGAUACCAGCUCAACAUGAGGAUCACCCAUGUACGGGACGAAAGUCCCGGGCCCUUGGCAGCACGGUUGCCAAG [SSTheo B #20]	0.0532 µM	0.239 µM	0.109 µM	0.0937 µM	0.0898 µM
GGACUAACCAGAAGGAGCGGCACGCAGAAACUGCAAUUUCCUCCACACGAGGAUCACCCGUGUCAGGUAGGUCGCUGGUUAGUCG [ArgBX 29]	0.0264 µM	0.0218 µM	0.0226 µM	0.0238 µM	0.0227 µM
UCAGGAAGAGCGGCCGCCACUGUUUGGCAUGCGGAUGAAGGAACAUGAGGAUCACCCAUGUAGAUUAGGACCGGGCUUGCGGAGA [szeemullin]	0.0209 µM	0.0242 µM	0.0126 µM	0.0194 µM	0.0137 µM
AACAUGAGGAUCACCCAUGUCCUCAUGAUUCGAGGACCGGUACGGCCGCCACUCGGUCCUCGCGAGGAGGAGUCAAAGACUCCAA [Omei Trp A SS A v2]	0.36 µM	0.361 µM	–	0.968 µM	–
GAUAUGUUUCGAAGGAGCGGCCCUUGAUCCUCAUGAGACAUGAGGAUCACCCAUGUCUCGGGCCAGGUAGGUCGCGAAAUAUAUC [Astros-omei-mod4]	0.0303 µM	0.0321 µM	0.0195 µM	0.0214 µM	0.0192 µM
ACCAGGGUCUGAAGGAGCGCGAUUACAUGAGGAUCACCCAUGUGAAAUGGUAGAUGAUACUCGCAGGUAGGUCGCAGUACUUGGA [Same State Arginine B GF 14]	0.0533 µM	0.164 µM	0.215 µM	0.234 µM	0.107 µM
AUGCACAUCUAGGAUACCAGCACCCUUAUGUCACUAGUUAACAUGAGGAUCACCCAUGUUUGCCCUUGGCAGCCUCAUUGACCAU [theeternabot_exclusion_MS2_Theo_B_9]	0.0595 µM	0.0927 µM	0.0597 µM	–	–
UGCAUGAGGAUCGCCCGUGUCGAGCCGGUGCGAGGACCGGUACGGCCGCCACUCGAGACAUGAGGAUCACCCAUGUUGUGCGUGA [Exclusion Tryptophan A GF24]	0.0279 µM	0.0795 µM	–	0.0564 µM	–
GAUACUAUGAAAGUAGUAUCUACGUGUUGACGAGGACCGGUACGGCCGCCACUCGACAUGAGGAUCACCCAUGUAUAGAAUAUGU [TrypA_2]	0.0251 µM	0.0392 µM	–	0.0319 µM	–
GGCCAGGCAGCGGCCGCCACUUAGUGGGCCGAAUGUCCUUUGCUGAACAUGAGGAUCACCCAUGUAAGGACCGGGCUGUUCCGCA [theeternabot_exclusion_MS2_Trp_B_30]	0.0274 µM	0.0423 µM	–	0.0415 µM	–
AUACAUGAGGAUCACCCAUGUAAAGUUGAAGGAGCGACCAGAGGGUCAGGUAGGUCGCAACACAUGAGGAUCACCCAUGUAUCGA [DOUBLE!!! :-D #6]	0.0533 µM	0.0784 µM	0.0714 µM	0.0794 µM	0.0836 µM
UCGGACAUGAGGAUCACCCAUGUAAAUCCUCGAGGACCGGUACGGCCGCCACUCGAACGAGUGGCGCGCGAGCGCGCGCUCGCGC [aGa]	0.0204 µM	0.0677 µM	0.0369 µM	0.0625 µM	0.0438 µM
UCGUGUGUUUCGGAUACCAGUGUGGUCGAUACAUGAGGAUCACCCAUGUGAGAGGAGGUACACCCUUGGCAGCUGGCUGUUGCGG [qqwmullin]	0.0397 µM	0.082 µM	0.0775 µM	–	–
